The supplement of paper PMC9732359
± gives the uncertainty stated by the source.

Test: protein stability index of a GFP-peptide fusion (yeast GPS) (PSI 1-4); higher = more stable; sorted into four equal gates, so the index is relative within each strain
Summary of the method: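 Tiled yeast protein peptides of 17 residues were each joined downstream of GFP, on plasmids that also express Cherry. The pooled library was maintained in yeast, and mid-log cultures in leucine-free medium were sorted into four equal gates on the GFP/Cherry ratio. Plasmids from every gate were amplified by PCR and sequenced on Illumina, with barcodes linking reads to strains. The protein stability index of a peptide is its gate-number-weighted read frequency summed over the gates.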

Sequence	protein stability index (doa10∆)	protein stability index (pdr5∆)	protein stability index (san1∆)	protein stability index (ubr1∆)
DSVENSSNILEDILYYS [SRB8]	2.92 ± 0.13	2.74 ± 0.073	2.5 ± 0.058	2.72 ± 0.059
RGFIKSEGSGSSLVQKG [RPC53]	3.37 ± 0.1	3.34 ± 0.09	3.31 ± 0.076	3.14 ± 0.057
QNSSKIVNVLSKCLNLI [SWI3]	2.21 ± 0.057	1.98 ± 0.048	1.96 ± 0.093	1.31 ± 0.044
AGERKIPHDLNFLQESY [TAF14]	2.83 ± 0.086	3 ± 0.079	2.71 ± 0.064	2.62 ± 0.071
GNKLVELMRIISRNGDT [SMC1]	–	–	–	3.28 ± 0.25
LLPTNNGQPLNQNFSLT [GRR1]	3.06 ± 0.058	2.95 ± 0.045	2.81 ± 0.045	3.02 ± 0.047
EVNREEAIGFIRGSNKF [SMC3]	2.84 ± 0.21	2.77 ± 0.11	2.88 ± 0.14	2.57 ± 0.09
IDIPLDEQAFYNKDKAE [RPC37]	3.27 ± 0.18	3.38 ± 0.18	2.85 ± 0.24	3.26 ± 0.14
GEITFDGIGGLTEQIRE [RPT4]	3.34 ± 0.12	3.45 ± 0.099	3.21 ± 0.093	3.54 ± 0.062
CISLSGVPNYLVQLEPH [SSN2]	1.85 ± 0.062	2.09 ± 0.08	2.29 ± 0.083	2.2 ± 0.065
DFQPTELFDILSTSEDV [IRR1]	3.04 ± 0.11	2.42 ± 0.1	2.82 ± 0.074	3.08 ± 0.081
LSAADIVAQSEVEVSTR [RPO31]	2.33 ± 0.09	2.53 ± 0.11	2.54 ± 0.094	2.84 ± 0.068
HDEKLSDELHNQSTIYE [LIN1]	2.91 ± 0.11	2.74 ± 0.12	2.73 ± 0.16	2.77 ± 0.097
SECIVSIKSKVVDHHVE [RRP42]	3.04 ± 0.066	3.08 ± 0.08	2.71 ± 0.14	3.04 ± 0.067
SPLQKEEALNFDISMAD [SSN2]	3.23 ± 0.058	3.07 ± 0.057	3.18 ± 0.07	3.25 ± 0.058
SSSKSMINDENYIINDI [SRB8]	2.92 ± 0.064	2.82 ± 0.052	2.63 ± 0.074	2.83 ± 0.04
HKSDVMSVDIDKKASMI [ASC1]	3 ± 0.1	2.79 ± 0.083	2.48 ± 0.082	2.87 ± 0.11
SFEETVEILFEAGASAE [RPO21]	2.7 ± 0.11	2.77 ± 0.09	2.89 ± 0.063	2.51 ± 0.093
NGLIISWSNGKITSPIR [RRP42]	3.12 ± 0.19	2.98 ± 0.14	3.2 ± 0.082	3.39 ± 0.12
TQAAEFLSPYISTHLKT [IRR1]	1.96 ± 0.039	2.32 ± 0.059	2.03 ± 0.073	2.21 ± 0.043
KRAEKKAKERLQALKAN [SNF2]	2.72 ± 0.12	2.6 ± 0.15	1.73 ± 0.12	1.3 ± 0.048
TANDQYSSILGNSFNKS [YCG1]	3.13 ± 0.069	3.18 ± 0.067	3.31 ± 0.038	3.46 ± 0.058
GSADIGASVISLTKDKS [SIR4]	3.01 ± 0.086	3.12 ± 0.067	2.92 ± 0.084	3.21 ± 0.052
VFGTIIPKISDYIEFNI [YJL039C/NUP192]	2.05 ± 0.17	1.68 ± 0.22	–	1.61 ± 0.26
VQGGNAAPSAADIKAVV [RPP2B]	3.01 ± 0.084	3.34 ± 0.07	2.88 ± 0.085	3.23 ± 0.075
ALVAYTPTDVIGVVSLT [RRP6]	1.96 ± 0.091	1.57 ± 0.054	1.37 ± 0.11	1.93 ± 0.072

Sequence	protein stability index (doa10∆)	protein stability index (pdr5∆)	protein stability index (san1∆)	protein stability index (ubr1∆)
RNQVQTENVAQARIILN [YGR119C/NUP57]	3 ± 0.1	2.9 ± 0.092	3.01 ± 0.05	2.78 ± 0.042
NKYANNDFANNLPKEGD [CSL4]	3.14 ± 0.067	3 ± 0.056	2.9 ± 0.065	2.4 ± 0.071
MEVLGIEAGRAALYKEV [RPO21]	2.55 ± 0.14	2.9 ± 0.2	2.4 ± 0.16	2.76 ± 0.12
FLKEKDTVAELQAQLDY [FAS2]	2.88 ± 0.091	3.07 ± 0.11	3.15 ± 0.051	3.02 ± 0.067
DYSEIQRSRRKFSERRK [DSN1]	2.86 ± 0.095	3.35 ± 0.24	3.46 ± 0.087	2.75 ± 0.16
VQHDQILVMETSEEQTK [SWP82]	2.99 ± 0.092	2.91 ± 0.11	2.94 ± 0.047	2.85 ± 0.076
TPDDDEIDVENHDRINI [RPN8]	3.37 ± 0.26	3.5 ± 0.25	2.75 ± 0.17	2.68 ± 0.16
PNSERETDHANTENNDP [IRR1]	2.69 ± 0.073	2.87 ± 0.052	2.73 ± 0.045	2.88 ± 0.044
KDIIDPKLTSIFERMIE [RPN2]	2.68 ± 0.14	2.99 ± 0.11	2.93 ± 0.078	2.66 ± 0.1
EEIEPKLEKLRNEKRMF [SMC2]	2.89 ± 0.11	3.21 ± 0.074	3.02 ± 0.1	3.21 ± 0.079
DVPGRELKYELIAEESE [RPB2]	3.07 ± 0.19	3.01 ± 0.12	–	–
HPLHELIIQYPPNNARR [ISW2]	3.06 ± 0.065	2.88 ± 0.056	2.73 ± 0.052	3 ± 0.047
NPSEFTPNMVNSEISNL [SSN2]	2.66 ± 0.08	2.5 ± 0.1	2.58 ± 0.08	2.91 ± 0.062
CTNLTNRTLYELADLPK [GRR1]	2.93 ± 0.058	3.05 ± 0.048	2.92 ± 0.036	3.1 ± 0.046
VPCDRIEKSRLFSEKTI [SNF6]	2.58 ± 0.11	2.78 ± 0.058	2.62 ± 0.096	2.2 ± 0.044
EEIKQSARNYDKFKLNE [SMC1]	3.25 ± 0.066	3.24 ± 0.073	3.16 ± 0.076	3.31 ± 0.046
SLTTVWAEHLSDEVKRR [RPL3]	2.87 ± 0.13	2.85 ± 0.18	–	3 ± 0.18
KQQDAEELFTQLFHSMS [UBP6]	3.25 ± 0.059	3.31 ± 0.088	3.03 ± 0.088	3.14 ± 0.061
TLLNFVSNNVLRRLEIL [ECM29]	1.63 ± 0.1	1.92 ± 0.29	2.28 ± 0.19	2.48 ± 0.12
RRNLRYGDRMKLAKNLQ [RPO31]	3.15 ± 0.091	3.38 ± 0.073	3.48 ± 0.079	3.44 ± 0.067
LAVFLFDIYNRDRKLIT [YJL039C/NUP192]	1.98 ± 0.2	1.46 ± 0.13	–	–
LIYGISDEERDDEDDEH [AAR2]	3.22 ± 0.11	3.05 ± 0.097	3.52 ± 0.066	3.06 ± 0.099
VECTISILRKSSPEEPF [SNF12]	1.27 ± 0.061	1.46 ± 0.064	2.32 ± 0.066	1.14 ± 0.051
PGRKYTTLGKLSTSVGW [RPL16A]	2.92 ± 0.089	2.78 ± 0.092	2.2 ± 0.23	2.47 ± 0.091
KELEPWDLQLQEKESQI [SMC4]	3.16 ± 0.12	3.22 ± 0.13	3.21 ± 0.12	3.36 ± 0.12
FKAEKLQIVNQLPANMV [RPC17]	3.36 ± 0.085	3.07 ± 0.068	3.03 ± 0.071	3.13 ± 0.056
